According to patent US20230406885A1, “CYCLIC PEPTIDES FOR TRAPPING INTERLEUKIN-1 BETA” (MERCK SHARP & DOHME LLC, priority 2022, published 2023):
*1 amine or outer side, *2 acyl side, *3 side chain or, on linkers, in order; H or OH if unused. [ ]: non-standard residue; d: D form. TyrEtNAc = L-tyrosine O-ethyl acetamide, (S)-3-(4-(2-acetamidoethoxy)phenyl)-2-aminopropanoic acid, CC(=O)NCCOc1ccc(C[C@H](N[*:1])C(=O)[*:2])cc1; 3Pal4Ph4CO2H = (S)-4-(5-(2-amino-2-carboxyethyl)pyridin-2-yl)benzoic acid, O=C([C@H](Cc1ccc(-c2ccc(C(=O)[*:3])cc2)nc1)N[*:1])[*:2]; Pro(trans-4-NH2) = O=C([C@@H]1C[C@@H](N[*:3])CN1[*:1])[*:2]; Bip(4'-COOH) = N[C@@H](Cc1ccc(-c2ccc(C(=O)O)cc2)cc1)C(=O)O; 1Nal(3S-Me) = C[C@@H](c1cccc2ccccc12)[C@H](N)C(=O)O; hPhe(4-CF3) = N[C@@H](CCc1ccc(C(F)(F)F)cc1)C(=O)O; Ala(pyrimidin-5-yl) = N[C@@H](Cc1cncnc1)C(=O)O; Phe(4-COOH) = N[C@@H](Cc1ccc(C(=O)O)cc1)C(=O)O; Trp(7-aza) = N[C@@H](Cc1c[nH]c2ncccc12)C(=O)O; h3Pal(5-CN) = N#Cc1cncc(CC[C@H](N)C(=O)O)c1; Ala(4-THP) = N[C@@H](CC1CCOCC1)C(=O)O; hTyr = N[C@@H](CCc1ccc(O)cc1)C(=O)O; hPhe = N[C@@H](CCc1ccccc1)C(=O)O; 4Pal = N[C@@H](Cc1ccncc1)C(=O)O; dDab = NCC[C@@H](N)C(=O)O; dNMeA = CN[C@H](C)C(=O)O; Dab = NCC[C@H](N)C(=O)O; Dap = NC[C@H](N)C(=O)O; Aib = CC(C)(N)C(=O)O

These binders were tested against Recombinant human IL-1β (BioLegend 579404) (human, UniProt P01584 117-269) (assay: cell-based or functional assay).

| MRC5 IC50 | Binder |
| --- | --- |
| 0.085 nM | cyclo([TyrEtNAc]W[Phe(4-COOH)]G[Pro(trans-4-NH2)][1Nal(3S-Me)]D[dNMeA]G[Bip(4'-COOH)]W[Dab][dA][hPhe]) (SMILES CC(=O)NCCOc1ccc(C[C@@H]2NC(=O)[C@H](CCc3ccccc3)NC(=O)[C@@H](C)NC(=O)[C@H](CCN)NC(=O)[C@H](Cc3c[nH]c4ccccc34)NC(=O)[C@H](Cc3ccc(-c4ccc(C(=O)O)cc4)cc3)NC(=O)CNC(=O)[C@@H](C)N(C)C(=O)[C@H](CC(=O)O)NC(=O)[C@H]([C@@H](C)c3cccc4ccccc34)NC(=O)[C@@H]3C[C@@H](N)CN3C(=O)CNC(=O)[C@H](Cc3ccc(C(=O)O)cc3)NC(=O)[C@H](Cc3c[nH]c4ccccc34)NC2=O)cc1) [SEQ ID NO: 115] |
| 0.0918 nM | cyclo([TyrEtNAc]W[Phe(4-COOH)]G[Pro(trans-4-NH2)][1Nal(3S-Me)]D[dNMeA]G[Bip(4'-COOH)][Ala(pyrimidin-5-yl)]G[dDab][h3Pal(5-CN)]) (SMILES CC(=O)NCCOc1ccc(C[C@@H]2NC(=O)[C@H](CCc3cncc(C#N)c3)NC(=O)[C@@H](CCN)NC(=O)CNC(=O)[C@H](Cc3cncnc3)NC(=O)[C@H](Cc3ccc(-c4ccc(C(=O)O)cc4)cc3)NC(=O)CNC(=O)[C@@H](C)N(C)C(=O)[C@H](CC(=O)O)NC(=O)[C@H]([C@@H](C)c3cccc4ccccc34)NC(=O)[C@@H]3C[C@@H](N)CN3C(=O)CNC(=O)[C@H](Cc3ccc(C(=O)O)cc3)NC(=O)[C@H](Cc3c[nH]c4ccccc34)NC2=O)cc1) [SEQ ID NO: 113] |
| 0.196 nM | cyclo([TyrEtNAc]W[Phe(4-COOH)]G[Pro(trans-4-NH2)][1Nal(3S-Me)]D[dNMeA]G[Bip(4'-COOH)]KL[dA][hTyr]) (SMILES CC(=O)NCCOc1ccc(C[C@@H]2NC(=O)[C@H](CCc3ccc(O)cc3)NC(=O)[C@@H](C)NC(=O)[C@H](CC(C)C)NC(=O)[C@H](CCCCN)NC(=O)[C@H](Cc3ccc(-c4ccc(C(=O)O)cc4)cc3)NC(=O)CNC(=O)[C@@H](C)N(C)C(=O)[C@H](CC(=O)O)NC(=O)[C@H]([C@@H](C)c3cccc4ccccc34)NC(=O)[C@@H]3C[C@@H](N)CN3C(=O)CNC(=O)[C@H](Cc3ccc(C(=O)O)cc3)NC(=O)[C@H](Cc3c[nH]c4ccccc34)NC2=O)cc1) [SEQ ID NO: 110] |
| 0.102 nM | cyclo([TyrEtNAc]W[Phe(4-COOH)]G[Pro(trans-4-NH2)][1Nal(3S-Me)]D[dNMeA]G[Bip(4'-COOH)]KG[dA][hTyr]) (SMILES CC(=O)NCCOc1ccc(C[C@@H]2NC(=O)[C@H](CCc3ccc(O)cc3)NC(=O)[C@@H](C)NC(=O)CNC(=O)[C@H](CCCCN)NC(=O)[C@H](Cc3ccc(-c4ccc(C(=O)O)cc4)cc3)NC(=O)CNC(=O)[C@@H](C)N(C)C(=O)[C@H](CC(=O)O)NC(=O)[C@H]([C@@H](C)c3cccc4ccccc34)NC(=O)[C@@H]3C[C@@H](N)CN3C(=O)CNC(=O)[C@H](Cc3ccc(C(=O)O)cc3)NC(=O)[C@H](Cc3c[nH]c4ccccc34)NC2=O)cc1) [SEQ ID NO: 108] |
| 0.091 nM | cyclo([TyrEtNAc]W[Phe(4-COOH)]G[Pro(trans-4-NH2)][1Nal(3S-Me)]D[dNMeA]G[Bip(4'-COOH)][4Pal]S[dA][hPhe(4-CF3)]) (SMILES CC(=O)NCCOc1ccc(C[C@@H]2NC(=O)[C@H](CCc3ccc(C(F)(F)F)cc3)NC(=O)[C@@H](C)NC(=O)[C@H](CO)NC(=O)[C@H](Cc3ccncc3)NC(=O)[C@H](Cc3ccc(-c4ccc(C(=O)O)cc4)cc3)NC(=O)CNC(=O)[C@@H](C)N(C)C(=O)[C@H](CC(=O)O)NC(=O)[C@H]([C@@H](C)c3cccc4ccccc34)NC(=O)[C@@H]3C[C@@H](N)CN3C(=O)CNC(=O)[C@H](Cc3ccc(C(=O)O)cc3)NC(=O)[C@H](Cc3c[nH]c4ccccc34)NC2=O)cc1) [SEQ ID NO: 105] |
| 0.0775 nM | cyclo([TyrEtNAc]W[Phe(4-COOH)]G[Pro(trans-4-NH2)][1Nal(3S-Me)]D[dNMeA]G[Bip(4'-COOH)]KG[dNMeA][hTyr]) (SMILES CC(=O)NCCOc1ccc(C[C@@H]2NC(=O)[C@H](CCc3ccc(O)cc3)NC(=O)[C@@H](C)N(C)C(=O)CNC(=O)[C@H](CCCCN)NC(=O)[C@H](Cc3ccc(-c4ccc(C(=O)O)cc4)cc3)NC(=O)CNC(=O)[C@@H](C)N(C)C(=O)[C@H](CC(=O)O)NC(=O)[C@H]([C@@H](C)c3cccc4ccccc34)NC(=O)[C@@H]3C[C@@H](N)CN3C(=O)CNC(=O)[C@H](Cc3ccc(C(=O)O)cc3)NC(=O)[C@H](Cc3c[nH]c4ccccc34)NC2=O)cc1) [SEQ ID NO: 109] |
| 0.133 nM | cyclo([TyrEtNAc]W[Phe(4-COOH)]G[Pro(trans-4-NH2)][1Nal(3S-Me)]D[dNMeA]G[Bip(4'-COOH)]KS[dA][hPhe(4-CF3)]) (SMILES CC(=O)NCCOc1ccc(C[C@@H]2NC(=O)[C@H](CCc3ccc(C(F)(F)F)cc3)NC(=O)[C@@H](C)NC(=O)[C@H](CO)NC(=O)[C@H](CCCCN)NC(=O)[C@H](Cc3ccc(-c4ccc(C(=O)O)cc4)cc3)NC(=O)CNC(=O)[C@@H](C)N(C)C(=O)[C@H](CC(=O)O)NC(=O)[C@H]([C@@H](C)c3cccc4ccccc34)NC(=O)[C@@H]3C[C@@H](N)CN3C(=O)CNC(=O)[C@H](Cc3ccc(C(=O)O)cc3)NC(=O)[C@H](Cc3c[nH]c4ccccc34)NC2=O)cc1) [SEQ ID NO: 111] |
| 0.0617 nM | cyclo([TyrEtNAc]W[Phe(4-COOH)]G[Pro(trans-4-NH2)][1Nal(3S-Me)]D[dNMeA]G[Bip(4'-COOH)]KS[dA][hTyr]) (SMILES CC(=O)NCCOc1ccc(C[C@@H]2NC(=O)[C@H](CCc3ccc(O)cc3)NC(=O)[C@@H](C)NC(=O)[C@H](CO)NC(=O)[C@H](CCCCN)NC(=O)[C@H](Cc3ccc(-c4ccc(C(=O)O)cc4)cc3)NC(=O)CNC(=O)[C@@H](C)N(C)C(=O)[C@H](CC(=O)O)NC(=O)[C@H]([C@@H](C)c3cccc4ccccc34)NC(=O)[C@@H]3C[C@@H](N)CN3C(=O)CNC(=O)[C@H](Cc3ccc(C(=O)O)cc3)NC(=O)[C@H](Cc3c[nH]c4ccccc34)NC2=O)cc1) [SEQ ID NO: 112] |
| 0.0263 nM | cyclo([TyrEtNAc]W[Phe(4-COOH)]G[Pro(trans-4-NH2)][1Nal(3S-Me)]D[dNMeA]G[Bip(4'-COOH)][Ala(4-THP)]G[dDab][h3Pal(5-CN)]) (SMILES CC(=O)NCCOc1ccc(C[C@@H]2NC(=O)[C@H](CCc3cncc(C#N)c3)NC(=O)[C@@H](CCN)NC(=O)CNC(=O)[C@H](CC3CCOCC3)NC(=O)[C@H](Cc3ccc(-c4ccc(C(=O)O)cc4)cc3)NC(=O)CNC(=O)[C@@H](C)N(C)C(=O)[C@H](CC(=O)O)NC(=O)[C@H]([C@@H](C)c3cccc4ccccc34)NC(=O)[C@@H]3C[C@@H](N)CN3C(=O)CNC(=O)[C@H](Cc3ccc(C(=O)O)cc3)NC(=O)[C@H](Cc3c[nH]c4ccccc34)NC2=O)cc1) [SEQ ID NO: 106] |
| 0.0233 nM | cyclo([TyrEtNAc]W[Phe(4-COOH)]G[Pro(trans-4-NH2)][1Nal(3S-Me)]D[dNMeA]G[Bip(4'-COOH)][Trp(7-aza)]G[dDab][h3Pal(5-CN)]) (SMILES CC(=O)NCCOc1ccc(C[C@@H]2NC(=O)[C@H](CCc3cncc(C#N)c3)NC(=O)[C@@H](CCN)NC(=O)CNC(=O)[C@H](Cc3c[nH]c4ncccc34)NC(=O)[C@H](Cc3ccc(-c4ccc(C(=O)O)cc4)cc3)NC(=O)CNC(=O)[C@@H](C)N(C)C(=O)[C@H](CC(=O)O)NC(=O)[C@H]([C@@H](C)c3cccc4ccccc34)NC(=O)[C@@H]3C[C@@H](N)CN3C(=O)CNC(=O)[C@H](Cc3ccc(C(=O)O)cc3)NC(=O)[C@H](Cc3c[nH]c4ccccc34)NC2=O)cc1) [SEQ ID NO: 114] |
| 0.492 nM | cyclo([TyrEtNAc]W[Phe(4-COOH)]G[Pro(trans-4-NH2)][1Nal(3S-Me)]D[dNMeA]G[Bip(4'-COOH)]W[Dab][dA][hTyr]) (SMILES CC(=O)NCCOc1ccc(C[C@@H]2NC(=O)[C@H](CCc3ccc(O)cc3)NC(=O)[C@@H](C)NC(=O)[C@H](CCN)NC(=O)[C@H](Cc3c[nH]c4ccccc34)NC(=O)[C@H](Cc3ccc(-c4ccc(C(=O)O)cc4)cc3)NC(=O)CNC(=O)[C@@H](C)N(C)C(=O)[C@H](CC(=O)O)NC(=O)[C@H]([C@@H](C)c3cccc4ccccc34)NC(=O)[C@@H]3C[C@@H](N)CN3C(=O)CNC(=O)[C@H](Cc3ccc(C(=O)O)cc3)NC(=O)[C@H](Cc3c[nH]c4ccccc34)NC2=O)cc1) [SEQ ID NO: 116] |
| 0.0582 nM | cyclo([TyrEtNAc]W[Phe(4-COOH)]G[Pro(trans-4-NH2)][1Nal(3S-Me)]D[dNMeA]G[Bip(4'-COOH)]KG[Aib][hTyr]) (SMILES CC(=O)NCCOc1ccc(C[C@@H]2NC(=O)[C@H](CCc3ccc(O)cc3)NC(=O)C(C)(C)NC(=O)CNC(=O)[C@H](CCCCN)NC(=O)[C@H](Cc3ccc(-c4ccc(C(=O)O)cc4)cc3)NC(=O)CNC(=O)[C@@H](C)N(C)C(=O)[C@H](CC(=O)O)NC(=O)[C@H]([C@@H](C)c3cccc4ccccc34)NC(=O)[C@@H]3C[C@@H](N)CN3C(=O)CNC(=O)[C@H](Cc3ccc(C(=O)O)cc3)NC(=O)[C@H](Cc3c[nH]c4ccccc34)NC2=O)cc1) [SEQ ID NO: 107] |
| 0.0908 nM | cyclo([3Pal4Ph4CO2H]W[Phe(4-COOH)]G[Pro(trans-4-NH2)][1Nal(3S-Me)]D[dNMeA]G[Bip(4'-COOH)]W[Dap][dA][hTyr]) (SMILES C[C@@H]1C(=O)NCC(=O)N[C@@H](Cc2ccc(-c3ccc(C(=O)O)cc3)cc2)C(=O)N[C@@H](Cc2c[nH]c3ccccc23)C(=O)N[C@@H](CN)C(=O)N[C@H](C)C(=O)N[C@@H](CCc2ccc(O)cc2)C(=O)N[C@@H](Cc2ccc(-c3ccc(C(=O)O)cc3)nc2)C(=O)N[C@@H](Cc2c[nH]c3ccccc23)C(=O)N[C@@H](Cc2ccc(C(=O)O)cc2)C(=O)NCC(=O)N2C[C@H](N)C[C@H]2C(=O)N[C@@H]([C@@H](C)c2cccc3ccccc23)C(=O)N[C@@H](CC(=O)O)C(=O)N1C) [SEQ ID NO: 11] |
